Side chains are listed from the residue outwards. Ends that are not written are not given here. amino‑PEG‑coated CdSeTe/ZnS quantum dot = amino-PEG-coated CdSeTe/ZnS quantum dot; sulfo‑SMCC = sulfosuccinimidyl-4-(N-maleimidomethyl)cyclohexane-1-carboxylate
Target: T1, recombinant human VCAM-1 (human, UniProt P19320 25-698)
T1 construct: vascular cell adhesion molecule 1 (VCAM-1), human, recombinant; A bought recombinant VCAM-1 is likely the soluble extracellular part, perhaps with a tag or Fc; also called recombinant VCAM-1; vascular cell adhesion molecule 1; source: bought: R&D Systems
T1 sequence (looked up): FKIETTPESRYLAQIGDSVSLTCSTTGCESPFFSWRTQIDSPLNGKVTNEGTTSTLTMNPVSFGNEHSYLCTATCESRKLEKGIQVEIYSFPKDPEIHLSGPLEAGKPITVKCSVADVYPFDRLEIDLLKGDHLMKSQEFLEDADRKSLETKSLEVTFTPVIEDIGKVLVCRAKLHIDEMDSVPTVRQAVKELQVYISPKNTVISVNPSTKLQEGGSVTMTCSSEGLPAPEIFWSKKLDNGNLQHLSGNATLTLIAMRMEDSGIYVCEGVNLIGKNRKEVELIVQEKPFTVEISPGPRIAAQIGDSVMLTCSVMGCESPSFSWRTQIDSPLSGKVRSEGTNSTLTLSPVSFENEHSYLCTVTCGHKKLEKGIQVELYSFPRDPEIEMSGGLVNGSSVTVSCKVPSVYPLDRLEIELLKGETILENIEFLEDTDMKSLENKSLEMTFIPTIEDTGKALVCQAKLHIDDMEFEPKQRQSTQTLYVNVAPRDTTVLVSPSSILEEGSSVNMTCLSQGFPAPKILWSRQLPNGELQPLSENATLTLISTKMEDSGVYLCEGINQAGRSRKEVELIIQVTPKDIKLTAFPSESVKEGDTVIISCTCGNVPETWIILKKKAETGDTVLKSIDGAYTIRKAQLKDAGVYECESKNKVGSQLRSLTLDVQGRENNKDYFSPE
Assay: blue-shift of the quantum dot fluorescence peak (spectra by confocal microscope); VQDs mixed with recombinant human VCAM-1 in tube in 10:1 and 1:1 molar ratios, 5 hours at room temperature; a drop dried on a slide; excitation 405 nm; blue-shift seen at 1:1, not at 10:1
Details: both partners purified

B1: VCAM-1 binding peptide functionalized QDs (VQDs) (peptide)
peptide: VHPKQHRGGSKGC([sulfo‑SMCC-amino‑PEG‑coated CdSeTe/ZnS quantum dot])
notes: source: synthetic peptide (Innovagen, Sweden), conjugated to Qdot 705 ITK Amino (PEG) Quantum Dots (Invitrogen) with sulfo-SMCC
B1: binds.

— publication PMC3877406, “Characterization of VCAM-1-Binding Peptide-Functionalized Quantum Dots for Molecular Imaging of Inflamed Endothelium” (PLoS ONE, 2013)
